Laboratory results from PMC12795676, “Integrin α5β1 mediates the inhibitory effects of vasoinhibin on angiogenesis and vascular permeability [image fx1.gif]” (The Journal of Biological Chemistry, 2025).
Each block holds one binder with its values, some of them ahead of it. No end group written: not given here.

Tests used:
Conditions in all cases: both partners purified
[1] = target: T1, recombinant human integrin α5β1 (human, UniProt P08648 42-995; P05556 21-728); assay: SPR; B-Vi45-51 (100 nM) immobilised on a streptavidin SA chip (Biacore 1K); integrin α5β1 injected at 30 μl/min, 60 s association/dissociation; HBS-P, 150 mM NaCl, 1 mM MnCl2, pH 7.4; 1:1 model (legend: steady-state)
T1 construct: integrin α5 subunit, human, recombinant; integrin β1 subunit, human, recombinant; No catalogue number is printed; also called α5β1 integrin; source: bought: Bio-Techne
T1 sequence (P08648 42-995, chain 1 of 2): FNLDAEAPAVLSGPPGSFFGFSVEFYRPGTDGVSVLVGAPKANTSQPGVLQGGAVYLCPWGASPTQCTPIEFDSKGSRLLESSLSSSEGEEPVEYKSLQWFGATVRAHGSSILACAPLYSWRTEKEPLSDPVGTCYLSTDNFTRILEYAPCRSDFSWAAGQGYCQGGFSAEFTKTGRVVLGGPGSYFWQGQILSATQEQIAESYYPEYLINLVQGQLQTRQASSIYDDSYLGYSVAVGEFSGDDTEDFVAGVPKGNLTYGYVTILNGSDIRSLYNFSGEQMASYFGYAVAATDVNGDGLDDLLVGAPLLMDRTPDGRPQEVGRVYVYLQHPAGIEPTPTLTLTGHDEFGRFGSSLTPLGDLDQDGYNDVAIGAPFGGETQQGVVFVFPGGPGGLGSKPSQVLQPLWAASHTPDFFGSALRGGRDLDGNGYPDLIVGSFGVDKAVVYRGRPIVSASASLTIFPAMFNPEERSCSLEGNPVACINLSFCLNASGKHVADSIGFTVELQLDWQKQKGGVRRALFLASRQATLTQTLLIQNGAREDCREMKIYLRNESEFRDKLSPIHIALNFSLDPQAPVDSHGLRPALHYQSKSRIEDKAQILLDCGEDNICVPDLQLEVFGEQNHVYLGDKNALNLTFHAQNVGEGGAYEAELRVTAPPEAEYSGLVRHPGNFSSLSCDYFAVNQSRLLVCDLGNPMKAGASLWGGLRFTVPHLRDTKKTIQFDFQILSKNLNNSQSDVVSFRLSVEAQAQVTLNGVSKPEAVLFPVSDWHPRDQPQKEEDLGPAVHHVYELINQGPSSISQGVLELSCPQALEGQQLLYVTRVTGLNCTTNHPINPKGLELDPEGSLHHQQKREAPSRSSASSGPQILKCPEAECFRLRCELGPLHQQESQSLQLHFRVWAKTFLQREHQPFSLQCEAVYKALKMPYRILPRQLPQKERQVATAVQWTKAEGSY
T1 sequence (P05556 21-728, chain 2 of 2): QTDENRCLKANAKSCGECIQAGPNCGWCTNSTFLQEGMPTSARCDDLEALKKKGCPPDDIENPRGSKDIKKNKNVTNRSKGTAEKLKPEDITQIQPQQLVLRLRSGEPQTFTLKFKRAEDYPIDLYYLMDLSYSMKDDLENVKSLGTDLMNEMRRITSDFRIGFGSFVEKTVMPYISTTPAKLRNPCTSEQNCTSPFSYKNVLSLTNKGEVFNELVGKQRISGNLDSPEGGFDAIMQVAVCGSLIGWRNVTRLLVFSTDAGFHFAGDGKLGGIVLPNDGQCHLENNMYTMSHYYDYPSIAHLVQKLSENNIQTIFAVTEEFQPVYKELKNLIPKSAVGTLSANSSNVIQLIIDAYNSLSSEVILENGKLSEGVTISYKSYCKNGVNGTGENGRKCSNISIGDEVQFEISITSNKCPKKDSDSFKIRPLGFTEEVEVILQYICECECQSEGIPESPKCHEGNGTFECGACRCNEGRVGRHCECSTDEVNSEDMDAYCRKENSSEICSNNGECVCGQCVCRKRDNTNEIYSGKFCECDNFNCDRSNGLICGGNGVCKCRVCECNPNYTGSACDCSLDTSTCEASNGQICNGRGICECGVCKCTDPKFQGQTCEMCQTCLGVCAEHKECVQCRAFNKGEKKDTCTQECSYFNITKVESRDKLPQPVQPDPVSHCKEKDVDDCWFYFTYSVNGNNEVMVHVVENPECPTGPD

[2] = target: T1, recombinant human integrin α5β1; assay: ELISA; plates coated with 2 μg/mL integrin α5β1, PAI-1 or PAI-1-uPA complex; incubated with B-Vi45-51 or Vi (dose-dependent) or 100 nM Vi mutants; horseradish peroxidase antibodies and TMB
[3] = target: plasminogen activator inhibitor-1 (PAI-1), immobilised on ELISA plates (UniProt P05121 24-402); assay: as above
Sequence of plasminogen activator inhibitor-1 (PAI-1), immobilised on ELISA plates (P05121 24-402): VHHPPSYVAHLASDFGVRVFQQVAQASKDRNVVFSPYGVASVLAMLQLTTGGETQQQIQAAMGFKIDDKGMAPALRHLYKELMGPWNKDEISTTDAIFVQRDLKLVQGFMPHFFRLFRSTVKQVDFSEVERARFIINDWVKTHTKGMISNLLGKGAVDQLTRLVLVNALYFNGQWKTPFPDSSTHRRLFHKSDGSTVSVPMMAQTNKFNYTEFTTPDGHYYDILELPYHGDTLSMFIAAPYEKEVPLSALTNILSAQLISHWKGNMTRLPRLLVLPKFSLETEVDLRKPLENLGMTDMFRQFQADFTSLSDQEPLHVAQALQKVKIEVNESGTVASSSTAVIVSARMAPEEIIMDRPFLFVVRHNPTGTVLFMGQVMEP

[4] = target: T2, PAI-1-uPA complex, immobilised on ELISA plates (UniProt P05121 24-402; P00749 21-431); assay: as above
T2 construct: the methods print '(37 °C, 10 min)' after the complex
T2 sequence (P05121 24-402, chain 1 of 2, other chains not shown): as the sequence (P05121 24-402) above

- Kd [1]: 2740 nM
B1: biotinylated peptide comprising residues 45 to 51 of vasoinhibin (B-Vi45-51) (peptide, UniProt P01236 73-79, looked up)
peptide: THGRGFI
modifications: also: biotin, position not given here
notes: vasoinhibin (fragment of prolactin), residues 45 to 51, holds the HGR motif (H46, R48 printed); also called biotinylated Vi45-51; source: synthetic peptide, bought: GenScript

- Kd [2]: 383 nM
- Kd [3]: 528 nM
- Kd [4]: 406 nM
B2: vasoinhibin (Vi) (domain or fragment, UniProt P01236 29-151, looked up)
chain: LPICPGGAARCQVTLRDLFDRAVVLSHYIHNLSSEMFSEFDKRYTHGRGFITKAINSCHTSSLATPEDKEQAQQMNQKDFLSLIVSILRSWNEPLYHLVTEVRGMQEAPEAILSKAVEIEEQT
notes: vasoinhibin, a fragment of the hormone prolactin; also called 16K prolactin
